Measurements taken from article PMC4278681.

T1: N-HvGR-RBP1 (RRM domain) (Hordeum vulgare L., UniProt J7FTI7 1-92)
T1 sequence: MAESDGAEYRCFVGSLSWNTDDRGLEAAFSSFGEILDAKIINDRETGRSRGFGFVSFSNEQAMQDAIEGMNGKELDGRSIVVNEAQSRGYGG

B1: TTCTGT 6-mer (ssDNA)
DNA: TTCTGT
B2: TTCTGA 6-mer (ssDNA)
DNA: TTCTGA

Target: T1, N-HvGR-RBP1 (RRM domain)
Experiment: NMR

Binder | binding result
B1 | binds
B2 | binds
